Results on one substance are retold here after paper PMC7292776.

The target in the test is typhoid toxin PltB homopentamer (S. Typhi PltB, wild type) (Salmonella enterica serovar Typhi) (UniProt Q8Z6A3). Put plainly: crystal structure.

For “typhoid toxin PltB homopentamer (S. Typhi PltB, wild type) (from UniProt Q8Z6A3 1-137) (natural protein)”, the stoichiometry N came to 5.

The stoichiometry N is a count of units in the complex or per binding partner.
